B1: CODA1025: engineered receptor: R101F, L131G in SEQ ID NO: 33 (protein)
chain: MRCSPGGVWLALAASLLHVSLQGEFQRKLYKELVKNYNPLERPVANDSQPLTVYFSLSLLQIMDVDEKNQVLTTNIWLQMSWTDHYLQWNVSEYPGVKTVFFPDGQIWKPDILLYNSADERFDATFHTNVGVNSSGHCQYLPPGIFKSSCPMDLKNFPMDVQTCKLKFGSWSYGGWSLDLQMQEADISGYIPNGEWDLVGIPGKRSERFYECCKEPYPDVTFTVTMRRRMGYYLIQMYIPSLLIVILSWISFWINMDAAPARVGLGITTVLTMTTQSSGSRASLPKVSYVKAIDIWMAVCLLFVFSALLEYAAVNFVSRQHKELLRFRRKRRHHKSPMLNLFQEDEAGEGRFNFSAYGMGPACLQAKDGISVKGANNSNTTNPPPAPSKSPEEMRKLFIQRAKKIDKISRIGFPMAFLIFNMFYWIIYKIVRREDVHNQ
modifications: synthetic sequence of chimeric LGIC
B2: CODA1048: engineered receptor: R101F, Y210F in SEQ ID NO: 33 (protein)
chain: MRCSPGGVWLALAASLLHVSLQGEFQRKLYKELVKNYNPLERPVANDSQPLTVYFSLSLLQIMDVDEKNQVLTTNIWLQMSWTDHYLQWNVSEYPGVKTVFFPDGQIWKPDILLYNSADERFDATFHTNVLVNSSGHCQYLPPGIFKSSCPMDLKNFPMDVQTCKLKFGSWSYGGWSLDLQMQEADISGYIPNGEWDLVGIPGKRSERFFECCKEPYPDVTFTVTMRRRMGYYLIQMYIPSLLIVILSWISFWINMDAAPARVGLGITTVLTMTTQSSGSRASLPKVSYVKAIDIWMAVCLLFVFSALLEYAAVNFVSRQHKELLRFRRKRRHHKSPMLNLFQEDEAGEGRFNFSAYGMGPACLQAKDGISVKGANNSNTTNPPPAPSKSPEEMRKLFIQRAKKIDKISRIGFPMAFLIFNMFYWIIYKIVRREDVHNQ
modifications: synthetic sequence of chimeric LGIC
B3: CODA1039: engineered receptor: Y115E, Y210W in SEQ ID NO: 33 (protein)
chain: MRCSPGGVWLALAASLLHVSLQGEFQRKLYKELVKNYNPLERPVANDSQPLTVYFSLSLLQIMDVDEKNQVLTTNIWLQMSWTDHYLQWNVSEYPGVKTVRFPDGQIWKPDILLENSADERFDATFHTNVLVNSSGHCQYLPPGIFKSSCPMDLKNFPMDVQTCKLKFGSWSYGGWSLDLQMQEADISGYIPNGEWDLVGIPGKRSERFWECCKEPYPDVTFTVTMRRRMGYYLIQMYIPSLLIVILSWISFWINMDAAPARVGLGITTVLTMTTQSSGSRASLPKVSYVKAIDIWMAVCLLFVFSALLEYAAVNFVSRQHKELLRFRRKRRHHKSPMLNLFQEDEAGEGRFNFSAYGMGPACLQAKDGISVKGANNSNTTNPPPAPSKSPEEMRKLFIQRAKKIDKISRIGFPMAFLIFNMFYWIIYKIVRREDVHNQ
modifications: synthetic sequence of chimeric LGIC
B4: CODA1027: engineered receptor: R101F, L131D in SEQ ID NO: 33 (protein)
chain: MRCSPGGVWLALAASLLHVSLQGEFQRKLYKELVKNYNPLERPVANDSQPLTVYFSLSLLQIMDVDEKNQVLTTNIWLQMSWTDHYLQWNVSEYPGVKTVFFPDGQIWKPDILLYNSADERFDATFHTNVDVNSSGHCQYLPPGIFKSSCPMDLKNFPMDVQTCKLKFGSWSYGGWSLDLQMQEADISGYIPNGEWDLVGIPGKRSERFYECCKEPYPDVTFTVTMRRRMGYYLIQMYIPSLLIVILSWISFWINMDAAPARVGLGITTVLTMTTQSSGSRASLPKVSYVKAIDIWMAVCLLFVFSALLEYAAVNFVSRQHKELLRFRRKRRHHKSPMLNLFQEDEAGEGRFNFSAYGMGPACLQAKDGISVKGANNSNTTNPPPAPSKSPEEMRKLFIQRAKKIDKISRIGFPMAFLIFNMFYWIIYKIVRREDVHNQ
modifications: synthetic sequence of chimeric LGIC
B5: CODA1054: engineered receptor: R101M, L131F in SEQ ID NO: 33 (protein)
chain: MRCSPGGVWLALAASLLHVSLQGEFQRKLYKELVKNYNPLERPVANDSQPLTVYFSLSLLQIMDVDEKNQVLTTNIWLQMSWTDHYLQWNVSEYPGVKTVMFPDGQIWKPDILLYNSADERFDATFHTNVFVNSSGHCQYLPPGIFKSSCPMDLKNFPMDVQTCKLKFGSWSYGGWSLDLQMQEADISGYIPNGEWDLVGIPGKRSERFYECCKEPYPDVTFTVTMRRRMGYYLIQMYIPSLLIVILSWISFWINMDAAPARVGLGITTVLTMTTQSSGSRASLPKVSYVKAIDIWMAVCLLFVFSALLEYAAVNFVSRQHKELLRFRRKRRHHKSPMLNLFQEDEAGEGRFNFSAYGMGPACLQAKDGISVKGANNSNTTNPPPAPSKSPEEMRKLFIQRAKKIDKISRIGFPMAFLIFNMFYWIIYKIVRREDVHNQ
modifications: synthetic sequence of chimeric LGIC
B6: CODA1045: engineered receptor: R101W, Y210V in SEQ ID NO: 33 (protein)
chain: MRCSPGGVWLALAASLLHVSLQGEFQRKLYKELVKNYNPLERPVANDSQPLTVYFSLSLLQIMDVDEKNQVLTTNIWLQMSWTDHYLQWNVSEYPGVKTVWFPDGQIWKPDILLYNSADERFDATFHTNVLVNSSGHCQYLPPGIFKSSCPMDLKNFPMDVQTCKLKFGSWSYGGWSLDLQMQEADISGYIPNGEWDLVGIPGKRSERFVECCKEPYPDVTFTVTMRRRMGYYLIQMYIPSLLIVILSWISFWINMDAAPARVGLGITTVLTMTTQSSGSRASLPKVSYVKAIDIWMAVCLLFVFSALLEYAAVNFVSRQHKELLRFRRKRRHHKSPMLNLFQEDEAGEGRFNFSAYGMGPACLQAKDGISVKGANNSNTTNPPPAPSKSPEEMRKLFIQRAKKIDKISRIGFPMAFLIFNMFYWIIYKIVRREDVHNQ
modifications: synthetic sequence of chimeric LGIC

Tested on: rat DRG neurons
Test: Rheobase shift / evoked action potentials, rat DRG neurons (current clamp)
Format: cell-based
Conditions: for Rheobase Shift; Rat DRG Neurons, Baseline: no ligand, neurons expressing the receptor; for Rheobase Shift; Rat DRG Neurons, +TC-5619 @ EC90: ligand TC-5619 at EC90
Protocol: Using whole cell manual patch clamp electrophysiology in HEK293 cells, rat DRG neurons and rat hippocampal neurons, the EC50 of the various engineered receptors disclosed herein to Ach and non-native ligands was measured using the Hill equation with peak current measurements from escalating doses of ligand. The rheobase shift was also measured in rat DRG neurons, which reflects the efficacy of the receptors. To calculate the rheobase, first, the amount of current that can produce an action potential was determined. Then the ligand was added, followed by a step wise increase in the current injected up to 700 pA.
DRG rheobase experiments were performed in current clamp mode using a potassium-based internal solution containing: 100 mM potassium D-gluconate, 28 mM potassium chloride, 1 mM magnesium chloride hexahydrate, 5 mM magnesium ATP, 10 mM HEPES, and 0.5 mM EGTA (pH=7.2 with potassium hydroxide, osmolarity=290-295 mOsm, calculated liquid junction potential=−13.5 mV). To measure DRG input resistance and rheobase, 500 ms current steps (−200 pA to 700 pA) were applied the membrane in the presence and absence of a compound. No holding current was applied to the membrane for cells included in the final datasets. Data were acquired at 10 kHz, with Bessel filter at 2 kHz and series resistance compensation at 100%. Rheobase was defined as the smallest depolarizing current injection required to cause an action potential to fire in the cell. In a subset of cells, the rheobase was ambiguous, since the action potential appeared to be graded in amplitude. In these cases, a […] of the trace clarified the rheobase. Input resistance was measured from the negative current injections, calculated as the difference in membrane potential at steady state divided by the current injection amplitude and then averaged across the four negative current steps for each recording. Resting membrane potential was measured from the first 100 ms of each sweep, averaged for each recording, and corrected for liquid junction potential. One-way ANOVA with multiple comparisons was used to test for significance of difference in rheobase and input resistance between baseline, drug, and wash conditions.
DRG neurons: DRG rheobase experiments were performed in current clamp mode using a potassium-based internal solution containing (in mM): 100 potassium D-gluconate (G4500), 28 potassium chloride (P9333), 1 magnesium chloride hexahydrate (M2670), 5 magnesium ATP (A9187), 10 HEPES (54457), and 0.5 EGTA (3777) (pH=7.2 with potassium hydroxide, osmolarity=290-295 mOsm, calculated liquid junction potential=−13.5 mV). To measure DRG input resistance and rheobase, 500 ms current steps (−200 pA to 700 pA) were applied the membrane (−400 pA to 700 pA in an early version of the protocol) in the presence and absence of a compound. No holding current was applied to the membrane for cells included in the final datasets. Data were acquired at 10 kHz, with Bessel filter at 2 kHz and series resistance compensation at 100%. Rheobase was defined as the smallest depolarizing current injection required to cause an action potential to fire in the cell. In a subset of cells, the rheobase was ambiguous, since the action potential appeared to be graded in amplitude. In these cases, a […] of the trace clarified the rheobase. Input resistance was measured from the negative current injections, calculated as the difference in membrane potential at steady state divided by the current injection amplitude and then averaged across the four negative current steps for each recording. Resting membrane potential was measured from the first 100 ms of each sweep, averaged for each recording, and corrected for liquid junction potential. One-way ANOVA with multiple comparisons was used to test for significance of difference in rheobase and input resistance between baseline, drug, and wash conditions.

Molecule | Rheobase Shift; Rat DRG Neurons, Baseline [pA] | Rheobase Shift; Rat DRG Neurons, +TC-5619 @ EC90 [pA]
B1 | 140 ± 19 | 560 ± 72
B2 | 120 ± 19 | 590 ± 46
B3 | 88 ± 9 | 453 ± 58
B4 | 100 ± 23 | 638 ± 63
B5 | 105 ± 13 | 673 ± 27
B6 | 141 ± 22 | 700 ± 0
